Where a chain is given by its changes, count along the chain named. Names may count otherwise.
T1: wild type, full length human TNFR2 (on cells) (human, UniProt P20333 23-461)
T1 construct: whole, on cells; also called hTNFR2; TNFRII
T1 sequence (looked up): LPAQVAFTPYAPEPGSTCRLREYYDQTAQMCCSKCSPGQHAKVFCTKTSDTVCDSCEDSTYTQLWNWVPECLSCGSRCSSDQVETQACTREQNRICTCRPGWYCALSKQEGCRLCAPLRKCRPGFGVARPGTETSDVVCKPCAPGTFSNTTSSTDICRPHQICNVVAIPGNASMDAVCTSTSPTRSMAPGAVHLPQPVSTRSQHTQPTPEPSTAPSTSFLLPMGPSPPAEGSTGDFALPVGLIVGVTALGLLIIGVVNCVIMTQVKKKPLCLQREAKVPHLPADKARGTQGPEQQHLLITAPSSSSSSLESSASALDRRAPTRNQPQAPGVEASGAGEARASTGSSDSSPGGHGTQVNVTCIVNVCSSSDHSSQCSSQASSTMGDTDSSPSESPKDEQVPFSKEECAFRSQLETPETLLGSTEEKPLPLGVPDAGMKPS

T2: recombinant human TNFR2-Fc protein (Sino Biological) (human, UniProt P20333 23-257, limits assumed)
T2 construct: bought; also called human TNFR2 protein; not shown: Fc part of the bought fusion protein; not described
T2 sequence (looked up): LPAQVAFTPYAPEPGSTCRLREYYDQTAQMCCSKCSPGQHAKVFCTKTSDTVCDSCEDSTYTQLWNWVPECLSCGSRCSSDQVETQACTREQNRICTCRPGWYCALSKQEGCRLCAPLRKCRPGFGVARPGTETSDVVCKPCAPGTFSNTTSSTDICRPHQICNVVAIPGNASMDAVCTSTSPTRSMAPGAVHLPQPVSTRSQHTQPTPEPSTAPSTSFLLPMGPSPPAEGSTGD

T3: wild type, full length murine TNFR2 (on cells) (mouse, UniProt P25119 23-474)
T3 construct: whole, on cells; also called mTNFR2; mouse TNFR2
T3 sequence (looked up): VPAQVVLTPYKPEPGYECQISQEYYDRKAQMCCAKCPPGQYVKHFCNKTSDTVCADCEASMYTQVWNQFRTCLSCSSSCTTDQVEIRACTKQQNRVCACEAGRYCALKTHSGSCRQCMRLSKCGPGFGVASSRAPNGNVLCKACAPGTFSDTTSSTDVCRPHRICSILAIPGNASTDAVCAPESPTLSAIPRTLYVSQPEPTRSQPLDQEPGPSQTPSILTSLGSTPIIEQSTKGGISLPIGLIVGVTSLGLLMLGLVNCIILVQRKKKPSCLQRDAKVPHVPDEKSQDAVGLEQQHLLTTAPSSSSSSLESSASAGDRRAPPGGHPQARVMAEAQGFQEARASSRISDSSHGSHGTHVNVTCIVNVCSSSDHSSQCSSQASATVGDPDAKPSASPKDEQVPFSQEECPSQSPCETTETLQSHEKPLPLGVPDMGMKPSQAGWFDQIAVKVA

T4: hTNFRII (Sinobioologicals Cat nr10414-H08H) (human, UniProt P20333 23-257)
T4 construct: bought; also called immobilized TNFR2
T4 sequence (looked up): T2 sequence (looked up)

B1: 001-F02 (antibody, V domains shown)
VH: EVQLLESGGGLVQPGGSLRLSCAASGFTFSDYYMSWVRQAPGKGLEWVANINTDGSEKYYLDSVKGRFTISRDNSKNTLYLQMNSLRAEDTAVYYCAREEYGAFDIWGQGTLVTVSS
VL: QSVLTQPPSASGTPGQRVTISCSGSSSNIGSNTVNWYQQLPGTAPKLLIYDNNKRPSGVPDRFSGSKSGTSASLAISGLRSEDEADYYCQSFDRGLSGSIVFGGGTKLTVLG
notes: IgG; In the MDSC assay tested as hIgG1, hIgG2 and N297Q
B2: 001-C08 (antibody, V domains shown)
VH: EVQLLESGGGLVQPGGSLRLSCAASGFTFSNAWMSWVRQAPGKGLEWVSGISSSGSSAYYADSVKGRFTISRDNSKNTLYLQMNSLRAEDTAVYYCARHYYYHIAGYYYDTFDIWGQGTLVTVSS
VL: not shown
notes: IgG; also called 1-008
B3: 001-D01 (antibody, V domains shown)
VH: not shown
VL: QSVLTQPPSASGTPGQRVTISCSGSSSNIGSNTVNWYQQLPGTAPKLLIYGNSNRPSGVPDRFSGSKSGTSASLAISGLRSEDEADYYCQSYDSSLSASVFGGGTKLTVLG
notes: IgG
B4: 005-F10 (antibody, V domains shown)
VH: EVQLLESGGGLVQPGGSLRLSCAASGFTFSDYYMTWIRQAPGKGLEWVSGISGSGGYIHYADSVKGRFTISRDNSKNTLYLQMNSLRAEDTAVYYCAREGLLPDAFDIWGQGTLVTVSS
VL: not shown
notes: IgG
B5: 001-B11 (antibody, V domains shown)
VH: EVQLLESGGGLVQPGGSLRLSCAASGFTFSSYSMNWVRQAPGKGLEWVAVMSYDEYNTYYADSVKGRFTISRDNSKNTLYLQMNSLRAEDTAVYYCAKGFYGDYPLWDYWGQGTLVTVSS
VL: not shown
notes: IgG
B6: 001-C07 (antibody, V domains shown)
VH: EVQLLESGGGLVQPGGSLRLSCAASGFTFSSYEMNWVRQAPGKGLEWVSTITGGGSIYDANSVQGRFTISRDNSKNTLYLQMNSLRAEDTAVYYCARDSTYHSSGYYYDVFDIWGQGTLVTVSS
VL: not shown
notes: IgG
B7: 001-B05 (antibody, V domains shown)
VH: EVQLLESGGGLVQPGGSLRLSCAASGFTFSNAWMSWVRQAPGKGLEWVSSISSASGYIYYGDSVKGRFTISRDNSKNTLYLQMNNLRAEDTAVYYCARGTLYGDFDEFWGQGTLVTVSS
VL: B1 VL with S31N, T33A, D51G, N53T, K54N, F92Y, R94S, G95S, S99Y, I100V
notes: IgG
B8: 004-E08 (antibody, V domains shown)
VH: EVQLLESGGGLVQPGGSLRLSCAASGFTFSRYWMHWVRQVPGKGLEWVSGISDSGVVTYYADSVKGRFTISRDNSKNTLYLQMNSLRAEDTAVYYCARAQSVAFDIWGQGTLVTVSS
VL: QSVLTQPPSASGTPGQRVTISCSGSSSNIGAGHDVHWYQQLPGTAPKLLIYYDDLLPSGVPDRFSGSKSGTSASLAISGLRSEDEADYYCAAWDDSLSGWVFGGGTKLTVLG
notes: IgG
B9: 001-A09 (antibody, V domains shown)
VH: EVQLLESGGGLVQPGGSLRLSCAASGFTFSSNYMSWVRQAPGKGLEWVSVISGSGGSTYYADSVKGRFTISRDNSKNTLYLQMNSLRAEDTAVYYCARDRGWFDPWGQGTLVTVSS
VL: QSVLTQPPSASGTPGQRVTISCSGSRSNIDNSYVSWYQQLPGTAPKLLIYRNNQRPSGVPDRFSGSKSGTSASLAISGLRSEDEADYYCATWDDSLSGPVFGGGTKLTVLG
notes: IgG
B10: 001-E06 (antibody, V domains shown)
VH: EVQLLESGGGLVQPGGSLRLSCAASGFTFSSNYMSWVRQAPGKGLEWVALIWYDGSNKYYADSVKGRFTISRDNSKNTLYLQMNSLRAEDTAVYYCAKDPLFDSWGQGTLVTVSS
VL: B8 VL with S23T, S25R, H33Y, Y52D, D53N, D54N, L55K, L56R, S98N, W100P
notes: IgG
B11: 001-B09 (antibody, V domains shown)
VH: EVQLLESGGGLVQPGGSLRLSCAASGFTFSRHAMNWVRQAPGKGLEWVSSISTGSSYIDYADSVKGRFTISRDNSKNTLYLQMNSLRAEDTAVYYCAREKGHYYYGMDVWGQGTLVTVSS
VL: QSVLTQPPSASGTPGQRVTISCTGSSSNIGAGYDVHWYQQLPGTAPKLLIYGNSYRPSGVPDRFSGSKSGTSASLAISGLRSEDEADYYCQSYDTSLSAYVVFGGGTKLTVLG
notes: IgG
B12: 001-C05 (antibody, V domains shown)
VH: EVQLLESGGGLVQPGGSLRLSCAASGFTFSSNEMSWIRQAPGKGLEWVSVIYSGGSTYYADSVKGRFTISRDNSKNTLYLQMNSLRAEDTAVYYCARREGWLVPFDYWGQGTLVTVSS
VL: B1 VL with D51G, N53I, K54I, R94T, G95T
notes: IgG
B13: 001-H10 (antibody, V domains shown)
VH: EVQLLESGGGLVQPGGSLRLSCAASGFTFDDYGMSWVRQAPGKGLEWVSVIYSGGSTYYADSVKGRFTISRDNSKNTLYLQMNSLRAEDTAVYYCARDRSSSWYRDGMDVWGQGTLVTVSS
VL: B8 VL with S23T, H33Y, Y52G, D53N, D54S, L55N, L56R
notes: IgG
B14: 005-B02 (antibody, V domains shown)
VH: EVQLLESGGGLVQPGGSLRLSCAASGFTFSDYYMSWIRQAPGKGLEWVALIWYDGGNEYYADSVKGRFTISRDNSKNTLYLQMNSLRAEDTAVYYCVRETGNYGMDVWGQGTLVTVSS
VL: QSVLTQPPSASGTPGQRVTISCTGSSSNIGAGYDVHWYQQLPGTAPKLLIYRNNQRPSGVPDRFSGSKSGTSASLAISGLRSEDEADYYCATWDDRVNGPVFGGGTKLTVLG
notes: IgG
B15: 001-H09 (antibody, V domains shown)
VH: EVQLLESGGGLVQPGGSLRLSCAASGFTFSSYAMSWVRQAPGKGLEWVATISYHGSDKDYADSVKGRFTISRDNSKNTLYLQMNSLRAEDTAVYYCARDANYHSSGYYYDVFDIWGQGTLVTVSS
VL: not shown
notes: IgG

How the values were obtained:
[1] = biological target: T1, wild type, full length human TNFR2 (on …); test: FACS, activated CD4+ T cells
Procedure: The ability and affinity of TNFR2 n-CoDeR® antibodies to bind TNFR2 expressed on cells were obtained using in vitro activated CD4⁺ T cells. Human CD4⁺ T cells were stimulated with 50 ng/ml rhIL-2 (R&D systems) and Dynabeads® T-Activator CD3/CD28 for T-Cell Expansion and Activation (Gibco) 2-3 days at 37 degrees. […] Cells were then incubated with an APC conjugated a-human IgG secondary ab (Jackson) followed by analysis by flow cytometry (FACSVerse, BD).

[2] = biological target: T2, recombinant human TNFR2-Fc protein …; test: ELISA, coated TNFR2-Fc
Procedure: 96-well plates (Lumitrac 600 LIA plate, Greiner) were coated overnight at 4° C. with recombinant human or mouse TNFR2-Fc protein (Sino Biological) at 1 pmol/well. After washing, titrated doses of anti-TNFR2 mAbs from 20 μg/ml to 0.1 ng/ml (133 nM to 1 pM) were allowed to bind for 1 hour. Plates were then washed again, and bound antibodies were detected with an anti-human-F(ab)-HRP secondary antibody (Jackson ImmunoResearch) diluted in 50 ng/ml. Super Signal ELISA Pico (Thermo Scientific) was used as substrate and the plates were analyzed using Tecan Ultra Microplate reader.

[3] = biological target: T3, wild type, full length murine TNFR2 (on …); test: FACS, transfected HEK293 cells
[4] = biological target: T4, hTNFRII (Sinobioologicals Cat …); test: blocking ELISA, coated hTNFRII, competitor hTNF-α-bio 5 nM
Procedure: 96-well plates were coated with hTNFRII (Sinobioologicals Cat nr10414-H08H) or mTNFRII (Sinobioologicals Cat No. 50128 M08H) at 2.5 pmol/well in ELISA coating buffer (0.1 M sodium carbonate pH 9.5) and incubated overnight at 4° C. After washing in ELISA wash buffer (PBS with 0.05% Tween20), the plates were incubated under slow agitation for 1 h in room temperature with n-CoDeR® mAbs at 10 μg/ml (one-dose ELISA) or 33 nM and subsequent 1:2 dilutions (titration ELISA) in block buffer containing 0.45% fish gelatin. […] Thereafter, plates were washed. For the human ELISAs, Streptavidin-HRP (Jackson Cat No. 016-030-084) diluted 1:2000 in block buffer were added and again incubated for 1 h at room temperature followed by washes first in ELISA buffer and then in Tris buffer (pH 9.8). The substrate (Super Signal ELISA Pico from Thermo Scientific Cat. No. 37069) were thereafter diluted according to the manufacturers instruction, added to the wells and incubated in darkness for 10 min before reading in a Tecan Ultra. […] After washing, anti-Rabbit-HRP diluted 1:10 000 in block buffer was added and again incubated for 1 h at room temperature. Substrate adding and reading were performed as above.

| EC50 [1] | EC50 [2] | binding result [3] | EC50 [4] | Binder |
| --- | --- | --- | --- | --- |
| 0.79 nM | 0.31 nM | no binding |  | B1 |
| 2.6 nM | 0.082 nM |  | 1.1 nM | B2 |
| 3.9 nM | 0.37 nM |  | 1.4 nM | B3 |
| 32 nM | 0.22 nM |  | 0.03 nM | B4 |
| 27 nM | 0.25 nM |  | 1 nM | B5 |
| 36 nM | 0.26 nM |  | 0.8 nM | B6 |
| 1.5 nM | 0.23 nM |  |  | B7 |
| 2.3 nM | 0.38 nM |  |  | B8 |
| 48 nM | 4.4 nM |  |  | B9 |
| 4.1 nM | 0.2 nM |  | 0.3 nM | B10 |
| 29 nM | 0.18 nM |  |  | B11 |
| 12 nM | 0.38 nM |  |  | B12 |
| 1.1 nM | 0.29 nM |  | 0.9 nM | B13 |
| 0.8 nM | 0.15 nM |  | 0.2 nM | B14 |
| 16 nM | 0.3 nM |  | 1.4 nM | B15 |

From patent US20220002426A1 (BIOINVENT INTERNATIONAL, published 2022)
